From the RNAGym collection of RNA variant scans (doi:10.7554/elife.80360)

B1: CPEB3 Ribozyme (parent)
chain: GGGGGCCACAGCAGAAGCGUUCACGUCGCGGCCCCUGUCAGAUUCUGGUGAAUCUGCGAAUUCUGCUGU

Variants of: B1
Test: self-cleavage, relative activity (ratio to wild type); higher = more cleavage; co-transcriptional
U26G G47A showed a self-cleavage of 0.893. Work on U26G G47U yielded a self-cleavage of 0.916. For U26A C54A, the self-cleavage was 0.655. U26A C54G gave a self-cleavage of 0.758. For U26A U49A, the self-cleavage was 0.866. For U26A U49G, the self-cleavage was 0.866. Variant U26A U49C has a self-cleavage of 0.79. Work on U26C U43C yielded a self-cleavage of 0.892. U26C U43A gave a self-cleavage of 0.865. For U26A U55A, the self-cleavage was 0.745. For C27A C29U, the self-cleavage was 0.21. In the case of C27A C29A, the self-cleavage is reported as 0.184. Work on C27A U38G yielded a self-cleavage of 0.141. U26A A40U gave a self-cleavage of 0.531. U26C U55G showed a self-cleavage of 0.74. C27A A51C gave a self-cleavage of 0.494. C27A A51G gave a self-cleavage of 0.67. In the case of U26G U49A, the self-cleavage is reported as 0.918. U26A U61A showed a self-cleavage of 0.515. With U26A U44C the self-cleavage was 0.768. In the case of U26C G68C, the self-cleavage is reported as 1.03. Work on C27A G58C yielded a self-cleavage of 0.605. For U26C G48U, the self-cleavage was 1.01. In the case of U26A C33U, the self-cleavage is reported as 0.85. U26A C33A showed a self-cleavage of 0.682. For U26G G30A, the self-cleavage was 0.509. Variant C27A G37A has a self-cleavage of 0.203. U26A A60C gave a self-cleavage of 0.285. Work on U26G C29A yielded a self-cleavage of 0.329. In the case of C27A A60C, the self-cleavage is reported as 0.23. Work on U26G U36A yielded a self-cleavage of 0.186. For U26G A59U, the self-cleavage was 0.455. Work on U26C G50A yielded a self-cleavage of 0.953. U26A U46C gave a self-cleavage of 0.809. U26C C33U showed a self-cleavage of 0.997. Variant U26G G37C has a self-cleavage of 0.162. Work on U26C C27G yielded a self-cleavage of 0.195. Variant U26C C27U has a self-cleavage of 0.182. For U26C C27A, the self-cleavage was 0.45. For C27A C63U, the self-cleavage was 0.463. C27A C63G showed a self-cleavage of 0.219. Work on U26C U36G yielded a self-cleavage of 0.123. In the case of U26C C66U, the self-cleavage is reported as 0.939. Variant G25U U43G has a self-cleavage of 0.148. U26A U62G showed a self-cleavage of 0.652. For U26A U62C, the self-cleavage was 0.669. With U26A A59C the self-cleavage was 0.322. In the case of C27A C54G, the self-cleavage is reported as 0.156. Work on C27A C54U yielded a self-cleavage of 0.602. For C27A C66U, the self-cleavage was 0.516. Variant U26C G65U has a self-cleavage of 0.604. With U26G C63G the self-cleavage was 0.427. Work on U26G U55A yielded a self-cleavage of 0.737. With U26G U55C the self-cleavage was 0.787. For C27A U43C, the self-cleavage was 0.404. U26C A42G gave a self-cleavage of 0.924. U26G A42G showed a self-cleavage of 0.78. Work on U26A C27A yielded a self-cleavage of 0.424. Work on U26A A51G yielded a self-cleavage of 0.889. Variant U26A A51C has a self-cleavage of 0.871. Work on U26C C35A yielded a self-cleavage of 0.254. U26A G41A showed a self-cleavage of 0.561. Variant U26A G41U has a self-cleavage of 0.67. In the case of C27A G47A, the self-cleavage is reported as 0.734. For U26C G56A, the self-cleavage was 0.855. For U26G U64G, the self-cleavage was 0.784. Work on U26G G28A yielded a self-cleavage of 0.183. For U26G G28U, the self-cleavage was 0.178. In the case of U26G C66U, the self-cleavage is reported as 0.888. With U26G C66A the self-cleavage was 0.533. U26G G31C showed a self-cleavage of 0.131. Work on U26G G31U yielded a self-cleavage of 0.242. Variant C27A U36A has a self-cleavage of 0.207. Variant G25U U61C has a self-cleavage of 0.179. Work on G25U U61A yielded a self-cleavage of 0.175. C27A G48C showed a self-cleavage of 0.652. C27A G48A showed a self-cleavage of 0.745. Variant C27A G48U has a self-cleavage of 0.706. Variant U26A G30U has a self-cleavage of 0.254. For U26A G30C, the self-cleavage was 0.266. U26G U61A gave a self-cleavage of 0.621. U26G U61C showed a self-cleavage of 0.418. In the case of U26G C34A, the self-cleavage is reported as 0.57. For U26G C35U, the self-cleavage was 0.726. Variant C27A A52G has a self-cleavage of 0.708. C27A A52U showed a self-cleavage of 0.547. Variant U26A G47C has a self-cleavage of 0.891. With C27A G31U the self-cleavage was 0.165. With C27A G31A the self-cleavage was 0.171. U26C G30C showed a self-cleavage of 0.486. U26A G68C showed a self-cleavage of 0.964. With U26A G68U the self-cleavage was 0.901. For U26A C63G, the self-cleavage was 0.507. Work on U26A C63U yielded a self-cleavage of 0.779. In the case of U26A G65C, the self-cleavage is reported as 0.466. Variant U26A G65U has a self-cleavage of 0.466. U26A U67A gave a self-cleavage of 0.913. U26G G65U gave a self-cleavage of 0.53. U26C A60G gave a self-cleavage of 0.85. For U26A G58A, the self-cleavage was 0.627. In the case of U26A G58U, the self-cleavage is reported as 0.852. Work on U26A G58C yielded a self-cleavage of 0.792. C27A G41U showed a self-cleavage of 0.16. Variant U26C C45A has a self-cleavage of 0.936. U26C C45G gave a self-cleavage of 0.983. C27A G56A showed a self-cleavage of 0.276. U26C U53G showed a self-cleavage of 0.873. In the case of U26C U53A, the self-cleavage is reported as 0.958. With U26A U64C the self-cleavage was 0.72. U26A C29U showed a self-cleavage of 0.36. Variant U26A C29A has a self-cleavage of 0.46. In the case of U26A C34A, the self-cleavage is reported as 0.436. In the case of U26A G56A, the self-cleavage is reported as 0.748. Variant U26G G48C has a self-cleavage of 0.959. For U26G G48A, the self-cleavage was 0.937. Work on U26G C57U yielded a self-cleavage of 0.255. Work on U26A U43A yielded a self-cleavage of 0.846. With U26G U62G the self-cleavage was 0.617. U26G U62A showed a self-cleavage of 0.818. U26A G31U gave a self-cleavage of 0.27. Variant U26A G31C has a self-cleavage of 0.18. Variant U26C U62G has a self-cleavage of 0.694. Variant U26A C45G has a self-cleavage of 0.895. In the case of U26A C45A, the self-cleavage is reported as 0.828. In the case of U26A C45U, the self-cleavage is reported as 0.879. In the case of C27A C32U, the self-cleavage is reported as 0.543. For U26C C39A, the self-cleavage was 0.79. Variant G25U U69A has a self-cleavage of 0.136. G25U U64G gave a self-cleavage of 0.189. In the case of U26A G48U, the self-cleavage is reported as 0.928. Work on C27A C45U yielded a self-cleavage of 0.596. Work on U26C U49A yielded a self-cleavage of 0.984. In the case of C27A A59G, the self-cleavage is reported as 0.353. For U26A G28U, the self-cleavage was 0.211. Variant U26A C35G has a self-cleavage of 0.207. In the case of U26C G37C, the self-cleavage is reported as 0.178. Variant U26G G58C has a self-cleavage of 0.799. Work on C27A G30U yielded a self-cleavage of 0.232. Variant U26A A42U has a self-cleavage of 0.863. In the case of G25U U55C, the self-cleavage is reported as 0.229. Variant C27A G68U has a self-cleavage of 0.811. C27A G68C gave a self-cleavage of 0.765. With U26G C45U the self-cleavage was 0.982. U26G C32U showed a self-cleavage of 0.922. U26G G41U showed a self-cleavage of 0.756. In the case of U26A C57A, the self-cleavage is reported as 0.355. For C27A C57G, the self-cleavage was 0.298. In the case of U26A C39U, the self-cleavage is reported as 0.722. U26A C39G gave a self-cleavage of 0.798. For U26A C39A, the self-cleavage was 0.477. Variant G25U U62A has a self-cleavage of 0.158. G25U U62G showed a self-cleavage of 0.116. In the case of U26C C32U, the self-cleavage is reported as 0.974. In the case of U26C C32A, the self-cleavage is reported as 0.753. In the case of U26C C34U, the self-cleavage is reported as 0.935. With U26C C34A the self-cleavage was 0.731. U26G C27A showed a self-cleavage of 0.458. In the case of C27A C35G, the self-cleavage is reported as 0.256. Work on U26C U69G yielded a self-cleavage of 1.06. Work on U26C G28C yielded a self-cleavage of 0.1. For G25U U49A, the self-cleavage was 0.12. Variant U26A G50U has a self-cleavage of 0.818. U26G A60C showed a self-cleavage of 0.361. U26G A60G showed a self-cleavage of 0.631. U26C C57U showed a self-cleavage of 0.408. Work on C27A U46C yielded a self-cleavage of 0.621. For U26A U69A, the self-cleavage was 0.938.
